From publication PMC2852398, “Metal-Free ALS Variants of Dimeric Human Cu,Zn-Superoxide Dismutase Have Enhanced Populations of Monomeric Species” (PLoS ONE, 2010)

Target: the molecule itself
Assay: global analysis of urea unfolding and refolding kinetics (manual-mixing far-UV CD at 230 nm); kinetic traces at 0.25 to 8.75 M urea and 1 to 40 µM protein fit together to 2U = 2M = N2; constants in the absence of urea; step: dimer (N2) to folded monomers (2M); monomer unfolding rate fixed to that of the stable monomeric variants; apo protein; 10 mM potassium phosphate, 1 mM K2EDTA, pH 7.2, 20°C

| Protein | Kd | koff | kon |
| --- | --- | --- | --- |
| apo A4V SOD1 in the AS-SOD1 (C6A/C111S) background (enzyme, human Cu,Zn superoxide dismutase (SOD1), 153-residue subunit; Apo (metal-free) form with the intra-subunit C57-C146 disulfide bond intact; source: BL21-Gold(DE3) PLysS cells, purified (anion exchange QSepharose XL and/or gel filtration Sephacryl 200HR)) not shown | 123 nM | 0.0223 s⁻¹ | 180000 M⁻¹ s⁻¹ |
| apo-AS-SOD1 (human Cu,Zn superoxide dismutase, C6A/C111S pseudo-wild-type background, metal-free) (enzyme, human Cu,Zn superoxide dismutase (SOD1), 153-residue subunit; Apo (metal-free) form with the intra-subunit C57-C146 disulfide bond intact; also called WT; WT SOD1; source: BL21-Gold(DE3) PLysS cells, purified (anion exchange QSepharose XL and/or gel filtration Sephacryl 200HR)) not shown | 0.87 nM | 0.000745 s⁻¹ | 860000 M⁻¹ s⁻¹ |
| apo L38V SOD1 in the AS-SOD1 (C6A/C111S) background (enzyme, human Cu,Zn superoxide dismutase (SOD1), 153-residue subunit; Apo (metal-free) form with the intra-subunit C57-C146 disulfide bond intact; source: BL21-Gold(DE3) PLysS cells, purified (anion exchange QSepharose XL and/or gel filtration Sephacryl 200HR)) not shown | 4.6 nM | 0.000557 s⁻¹ | 120000 M⁻¹ s⁻¹ |
| apo S134N SOD1 in the AS-SOD1 (C6A/C111S) background (enzyme, human Cu,Zn superoxide dismutase (SOD1), 153-residue subunit; Apo (metal-free) form with the intra-subunit C57-C146 disulfide bond intact; source: BL21-Gold(DE3) PLysS cells, purified (anion exchange QSepharose XL and/or gel filtration Sephacryl 200HR)) not shown | 1.1 nM | 0.000222 s⁻¹ | 200000 M⁻¹ s⁻¹ |
| apo L106V SOD1 in the AS-SOD1 (C6A/C111S) background (enzyme, human Cu,Zn superoxide dismutase (SOD1), 153-residue subunit; Apo (metal-free) form with the intra-subunit C57-C146 disulfide bond intact; source: BL21-Gold(DE3) PLysS cells, purified (anion exchange QSepharose XL and/or gel filtration Sephacryl 200HR)) not shown | 21 nM | 0.00151 s⁻¹ | 73000 M⁻¹ s⁻¹ |
